According to the nanobody polyreactivity screen of Harvey et al. (2022):

experiment: yeast display, Sf9 membrane polyspecificity reagent, FACS + sequencing; frameworks hold sequencing errors
Summary of the method: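 Genes from sorted yeast were amplified by colony PCR, read by MiSeq 2 × 250 sequencing and filtered on CDR length. These cells carried a synthetic nanobody library in Saccharomyces cerevisiae BJ5465 and were sorted by FACS into low and high (top ~1%) gates on anti-HA and streptavidin fluorescence. Polyreactivity is labelled according to the gate of origin.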

Question: With “QVQLVESGGGLVQAGGSLRLSCAASGNTFPAYAMGWYRQAPGTGGELVATISWSTGSTNYADSVKGRFTISRDNAKNTVYLQMNSLKPEDTAVYYCNKRYPSDQMDYWGQGTQVTVSS” as the sequence, how does the “polyreactivity (PSR sort gate)” value read?
Answer: low polyreactivity

Question: Which “polyreactivity (PSR sort gate)” value does the source give for “QVQLVESGGGLVQAGGSLRLSCAASGNTFPPNAMGWYRQAPGKERELVAAISWSGDSTYYADSVKGRFTISRDYAKNTVYLQMYSLKPEDTAVYYCAAAIFGEYEYWGQGTQVTVSS” here?
Answer: low polyreactivity

Question: Which “polyreactivity (PSR sort gate)” value does the source give for “QVQLVESGGGLVQAGGSLRLSCAASGNTFPSYAMGWYRQAPGKERQLVAAITSGGRTYYADSVKGRFTISRDNAKNTVYLQMNSLKPEDTAVYYCAADWVVRYPWYRYYYWGPGTQVTVSS” here?
Answer: high polyreactivity

Question: Which “polyreactivity (PSR sort gate)” value does the source give for “QVQLVESGGGLVQAGGSLRLSCAASGNTFRWYVMGWYRQAPGKERELVAAITSSGSTTYYADSVKGRFTISRDNAKNTVYLQMNSLKPEDTAVYYCAARNYGPYDYWGQGTQVTVSS” here?
Answer: low polyreactivity

Question: Which “polyreactivity (PSR sort gate)” value does the source give for “QVQLVESGGGLVQAGGSLRLSCAASGNTFSPYGMGWYRQAPGKERELVAGITISDDSTYYADSVKGRFTISRDNAKNTVYLQMNSLKPEDTAVYYCNARYLSWYFKYLYDYWGQGTQVTVSS” here?
Answer: low polyreactivity

Question: Which “polyreactivity (PSR sort gate)” value does the source give for “QVQLVESGGGLVQAGGSLRLSCAASGNTFTFYAMGWYRQAPGKERELVASITGRGGSTYYADSVKGRFTISRDNAKNTVYLQMNSLKPEDTAVYYCNADYNSYRYRPPTTRDYWGQGTQVTVSS” here?
Answer: low polyreactivity

Question: Which “polyreactivity (PSR sort gate)” value does the source give for “QVQLVESGGGLVQAGGSLRLSCAASGNTFVRYDMGWYRQAPGKEREFVAAITASGGSTYADSVKGRFTISRDNAKNTVYLQMNSLKPEDTAVYYCNAGNSSTGVDRYDYWGQGTQVTVSS” here?
Answer: low polyreactivity

Question: With “QVQLVESGGGLVQAGGSLRLSCAASGNTFVSNAMGWYRPAPGKERELVAAISSTGNTNYADSVKGRFTISRDNAKNTDYLQMNSLKPEDTAVYYCAKGDKRAYVAYKEGSWGQGTQVTVSS” as the sequence, how does the “polyreactivity (PSR sort gate)” value read?
Answer: low polyreactivity

Question: Which “polyreactivity (PSR sort gate)” value does the source give for “QVQLVESGGGLVQAGGSLRLSCAASGNTFVSNARGWYRQAPGKERELVAAIDSGGSTNYADSVKGRFTISRDNAKNTVYLQMNSLKPEDTAVYYCNRTSVYYYYWGQGTQVTVSS” here?
Answer: low polyreactivity

Question: With “QVQLVESGGGLVQAGGSLRLSCAASGNTFVTNDMGWYRQAPRKERELVADISWGGASTYYADSVKGRFTISRDNAKNTVYLQMNSLIPEDTAVYYCYATDDITYTYSYDYWGQGTQVTVSS” as the sequence, how does the “polyreactivity (PSR sort gate)” value read?
Answer: low polyreactivity

Question: With “QVQLVESGGGLVQAGGSLRLSCAASGNTFWFYGMGWYRQAPGKERELVAAITSGGSTDYADSVKWRFTISRDNAKNTVYLQMNSLKPEDTAVYYCAAEPVAYYGSSYGYWGQGTQVTVSS” as the sequence, how does the “polyreactivity (PSR sort gate)” value read?
Answer: low polyreactivity

Question: Which “polyreactivity (PSR sort gate)” value does the source give for “QVQLVESGGGLVQAGGSLRLSCAASGNTFWSYAMGWYRQAPGKERELVAAISFSGGSTNYADSVKGRFTISRDNAKNTVYLQMNSLKPEDTAVYYCAAYFYAPLTYYSWYDYWGQGTQVTVSS” here?
Answer: high polyreactivity

Question: For “QVQLVESGGGLVQAGGSLRLSCAASGNTFWSYAMGWYRQAPGNERELVAAITQRGGSTYYADSVKGRFTISRDNAKNTVYLQMNSLKPEDTAVYYCAADTSYKGDYWGQGTQVTVSS”, which “polyreactivity (PSR sort gate)” value is on record?
Answer: high polyreactivity

Question: For “QVQLVESGGGLVQAGGSLRLSCAASGNTFWYNAMGWYRQSPGKERELVAAISYSGGGTYYADSVKGRFTISRDNAKNTVYLQMNSLKPEDTAVYYCAADTLQRAFVLNDYWGQGTQVTVSS”, which “polyreactivity (PSR sort gate)” value is on record?
Answer: low polyreactivity

Question: Which “polyreactivity (PSR sort gate)” value does the source give for “QVQLVESGGGLVQAGGSLRLSCAASGNTFYAYAMGWYRQAPGKERELVAAIARGGNTYYADSVKGRFTISRDNAKNTVYLQMNSLKPEDTAVYYCNAYYPIRSSPYGYYYWGQGTQVTVSS” here?
Answer: high polyreactivity

Question: Which “polyreactivity (PSR sort gate)” value does the source give for “QVQLVESGGGLVQAGGSLRLSCAASGNTFYAYTMGLYIQAPGKERELVAAISSDGSTNYADSVKGRFTISRDNAKNTVYLQMNSLKPEDTAVYYCAVTLEVSTVRDYDYWGQGTQVTVSS” here?
Answer: low polyreactivity

Question: For “QVQLVESGGGLVQAGGSLRLSCAASGNTFYGYAMGWYRQAPGKERELVASITLSGDSTYYSDSVKGRFTISRDNAKNTVYLQMNSLKPEDTAGYYCAFDGYWYGGIFYYGGQGTQVTVSS”, which “polyreactivity (PSR sort gate)” value is on record?
Answer: low polyreactivity

Question: Which “polyreactivity (PSR sort gate)” value does the source give for “QVQLVESGGGLVQAGGSLRLSCAASGNTFYINAMGWYRQAPGKERELVAAINYSGDSTYADSVKGRFTITRDNAKNTFYLQMNSLKPEDTAVYYCAADTGWYDDWTHDYWGHGTQVTVSS” here?
Answer: low polyreactivity

Question: Which “polyreactivity (PSR sort gate)” value does the source give for “QVQLVESGGGLVQAGGSLRLSCAASGNTFYIYAMGWYRQAPGKERELVAAISRGGGSTYYAESVKGRFTISRDNAMNTVYLQLNSLKPEDTAVYYCAADYYYSRYDYWGQGTQVTVSS” here?
Answer: high polyreactivity

Question: With “QVQLVESGGGLVQAGGSLRLSCAASGNTFYKYAMRWYRQAPGKERELVADISWSGGSTYYADSVKGRFTISRDNAKNTVYLQMNSLKPEDTAVYYCNADTPVWDGHAYPVDYWGQGTQVTVSS” as the sequence, how does the “polyreactivity (PSR sort gate)” value read?
Answer: low polyreactivity

Question: Which “polyreactivity (PSR sort gate)” value does the source give for “QVQLVESGGGLVQAGGSLRLSCAASGNTFYLYAMGWYRKAPGKERELVASITGGTRTNYADSVKGRFTISRDNAKNTVYLQMNSLKPEDTAVYYCAVRYYWRRMNYWGQGTQVTVSS” here?
Answer: high polyreactivity

Question: For “QVQLVESGGGLVQAGGSLRLSCAASGNTFYNVYAMGWYRQATGKERELVAAITARGSTYADSVKGRFTISRDNAKNTVYLQMNSLKPEDNAVYYGATRSSWLYRGLYYNGFNYWGQGTQVTVSS”, which “polyreactivity (PSR sort gate)” value is on record?
Answer: high polyreactivity

Question: With “QVQLVESGGGLVQAGGSLRLSCAASGNTFYPKDMGWYRQAPGKERELVAAITTNDGDTYYADSVKGRFTISRDNAKNTVYLQMNRLKPEDTAVYYCAADSGSTSEYEYWGQGTQVTVSS” as the sequence, how does the “polyreactivity (PSR sort gate)” value read?
Answer: low polyreactivity

Question: For “QVQLVESGGGLVQAGGSLRLSCAASGNTFYPYAMGWYRQAPGKERELVAAITSSGGSTYYADSVNGRFTISRDNAKNTVYLQMNSLKPEDTAVYYCAAYIYFLGMDYWGQGTQVTVSS”, which “polyreactivity (PSR sort gate)” value is on record?
Answer: low polyreactivity

Question: Which “polyreactivity (PSR sort gate)” value does the source give for “QVQLVESGGGLVQAGGSLRLSCAASGNTFYRNAMGWYRQAPGKERELVAAITFSTGRTYYADSVKGRFTISRDNAKNTVYLQLNSLKPEDTAVYYCAAFYSGGDYWGQCTQVTVSS” here?
Answer: high polyreactivity

Question: For “QVQLVESGGGLVQAGGSLRLSCAASGNTFYYAMGWYTQAPGKERELVASIRTGGSTNYADSVKGRFTISRDNAKNTVYLQMNSLKPEDTAVYYCNRDGTYSHTGWDYWRPYEYWGQGTQVTVSS”, which “polyreactivity (PSR sort gate)” value is on record?
Answer: low polyreactivity

Question: Which “polyreactivity (PSR sort gate)” value does the source give for “QVQLVESGGGLVQAGGSLRLSCAASGNTIFAYVMGWYRQAAGKEREFVAAISRRDGRTYYADSVKGRFTISRDNAKNTVYLQMNSLKPEDTAVYYCNAQRHFWHLYAPSSFDYWGQGTQVTVSS” here?
Answer: low polyreactivity

Question: Which “polyreactivity (PSR sort gate)” value does the source give for “QVQLVESGGGLVQAGGSLRLSCAASGNTINFYAMGWYRQAPGKEREMVAAISSGGSTNYADSVKGRFTISRDNAKNTVYLQMNSLKPEDSAVYYCAKDVWYLVYYHWKSNRVWQYDYWGQGTQVTVSS” here?
Answer: low polyreactivity

Question: For “QVQLVESGGGLVQAGGSLRLSCAASGNTIVTNTMGWYRQAPGKERELVAAIDSGGDTYYADSVKGRFTISRDNAKNTVYLQMNSLKPEDTAVYYCAAVGDPNYFSNRRYEYWGQGTQVTVSS”, which “polyreactivity (PSR sort gate)” value is on record?
Answer: low polyreactivity

Question: For “QVQLVESGGGLVQAGGSLRLSCAASGNTLPQNAMGWYRQAPGKERELVAAISRSGGSTYYADSVKGRFTISRDNAKNTVYLQMNSLKPEDTAVYYCAAKLTVSGYRYGYWGQGTQVTVSS”, which “polyreactivity (PSR sort gate)” value is on record?
Answer: high polyreactivity

Question: For “QVQLVESGGGLVQAGGSLRLSCAASGNTLRTYGMGWYRQAPGKEREFVAAITYSGGSTYYADSVKGRFTISRDNAKNTVYLQMNSLKPEDTAVYYCAARYRSHYRRITPYDSWGQGTQVTVSS”, which “polyreactivity (PSR sort gate)” value is on record?
Answer: high polyreactivity

Question: For “QVQLVESGGGLVQAGGSLRLSCAASGNTLSYYTMGWYRQAPGKERELVAAISRGGGSTYYADSVKGRFTISRDNSMNTVYLHMNSLKPEDTAVYYCAAEAYRYAWYDYWGQGTQVTVSS”, which “polyreactivity (PSR sort gate)” value is on record?
Answer: high polyreactivity

Question: For “QVQLVESGGGLVQAGGSLRLSCAASGNTLYQYAMGWYRQAPGKERELVAAISGIGDSTYYADSVKGRFTISRDNAKNTVYLQMNSLKPEDTAVYYCAADGEYRYDLEYESWGQGTQVTVSS”, which “polyreactivity (PSR sort gate)” value is on record?
Answer: low polyreactivity

Question: With “QVQLVESGGGLVQAGGSLRLSCAASGNTLYSYAMGWYRQAPGKERELVAAITKSGGRTYYADSVKGRFTISRDNAKNTVYLQMNSLKPEDTADYYCNAVFLPTYHFDYWGQGTQVTVSS” as the sequence, how does the “polyreactivity (PSR sort gate)” value read?
Answer: high polyreactivity

Question: For “QVQLVESGGGLVQAGGSLRLSCAASGNTSAVYAMGWYRQAPGKERELVASITWSDGITYYADSVKGRFTISRDNAKNTVYLQMNSLKPEDTAVYYCAKSTLYSVEYDYWGEGTQVTVSS”, which “polyreactivity (PSR sort gate)” value is on record?
Answer: low polyreactivity

Question: Which “polyreactivity (PSR sort gate)” value does the source give for “QVQLVESGGGLVQAGGSLRLSCAASGNTVKGYAMGWYRQAPGKERELVAAISWSGSSTYYADSVKGRFTISRDNAKNTVYLQMNSLKPEDTAVYYCNRKYLGRYASVYGYGYWGQGTQVTVSS” here?
Answer: high polyreactivity

Question: With “QVQLVESGGGLVQAGGSLRLSCAASGPMFTSNAMGWYRQAPGKERELVAAISRRGTRTYYADSVKGRFTISRDNAKNTVYLQMNSLKPEDTAVYYCAATTGEQEDYWGQGTQVTVSS” as the sequence, how does the “polyreactivity (PSR sort gate)” value read?
Answer: high polyreactivity

Question: For “QVQLVESGGGLVQAGGSLRLSCAASGPTFDVYAMGWYRQAPGKERELVATISWRGTSTYYADSVKGRFTISRDNAKNTVYLQMNSLKPEDTAVYYCAAEVYYEYYYWRYYWGQGTQVTVSS”, which “polyreactivity (PSR sort gate)” value is on record?
Answer: high polyreactivity

Question: With “QVQLVESGGGLVQAGGSLRLSCAASGPTFGVNAMGWYRQAPGKERELVAVISSTGSTNYADSVKGRFTISRDNAKNTVYLQMNSLKPEDTAVYYCAVGPNSVGNRSYGFDYWGQGTQVTVSS” as the sequence, how does the “polyreactivity (PSR sort gate)” value read?
Answer: low polyreactivity

Question: With “QVQLVESGGGLVQAGGSLRLSCAASGPTFYKYAMGWYRQAPGKEREFVATITRRGGSTYYADSVKGRFTISRDNAKNTVYLQMNSLNPEDTAVYYCAKEIFLKGPDGHDYWGQGTQVTVSS” as the sequence, how does the “polyreactivity (PSR sort gate)” value read?
Answer: low polyreactivity

Question: With “QVQLVESGGGLVQAGGSLRLSCAASGPTFYYYDMGLYRPAPGKERELVAAISATGGRTYYADSVKGRFTISRDNAKNTVYLQMNSLKPEDTAVYYCAAETPYLRRRLGMDYWGQGTQVTVSS” as the sequence, how does the “polyreactivity (PSR sort gate)” value read?
Answer: high polyreactivity
